Experimental data as given in PMC4838357.

Columns and labels:
Experiment in all cases: MITOMI
Zif268 R14A = Zif268 R14A (mouse, UniProt P08046 333-421, R345A)
Zif268 R70A = Zif268 R70A (mouse, UniProt P08046 333-421, R401A)
Zif268 I28A = Zif268 I28A (mouse, UniProt P08046 333-421, I359A)

Measured: binding result

B1: target_268wt (Zif268 consensus) (dsDNA)
DNA 1: GGCCAATTAGCGTGGGCGTTTTCCGGCGGTATGAC
DNA 2: GTCATACCGCCGGAAAACGCCCACGCTAATTGGCC
binds: all assays above
